Laboratory results reported in PMC4176334.

Target: M. tuberculosis RNAP core;SigB;RbpA (Mycobacterium …, UniProt P9WGZ1;P9WGY9;P9WGY7;P9WGY5;P9WGI5;P9WHJ5 1-347;1-1178;1-1316;1-110;1-323;1-111, ||)
Experiment: EMSA

B1: galP1AA (dsDNA)
DNA 1: GTTTATTCCATGTCACACTTTTCGCATCTTTTCGTTGCTATAATTATTTCATACCAAAAGCCTAATGGAGCG
DNA 2: CGCTCCATTAGGCTTTTGGTATGAAATAATTATAGCAACGAAAAGATGCGAAAAGTGTGACATGGAATAAAC
B1: binds.
